Blank lines part the entries; values can stand above or below the molecule they belong to.
B3: chicken vinculin domain 1 (residues 1-258) (domain or fragment, UniProt P12003 1-258, looked up)
chain: MPVFHTRTIESILEPVAQQISHLVIMHEEGEVDGKAIPDLTAPVSAVQAAVSNLVRVGKETVQTTEDQILKRDMPPAFIKVENACTKLVRAAQMLQADPYSVPARDYLIDGSRGILSGTSDLLLTFDEAEVRKIIRVCKGILEYLTVAEVVETMEDLVTYTKNLGPGMTKMAKMIDERQQELTHQEHRVMLVNSMNTVKELLPVLISAMKIFVTTKNTKSQGIEEALKNRNFTVEKMSAEINEIIRVLQLTSWDEDAW

Columns and labels:
[1] = target: T1, His-Avi-tagged β3-integrin tail, biotinylated (UniProt P05106 742-788, biotin (biotinylated tails, held on NeutrAvidin)); test: ELISA
T1 chain (looked up): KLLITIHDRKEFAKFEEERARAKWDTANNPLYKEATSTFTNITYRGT

[2] = target: B3; test: SEC
[3] = target: T2, talin IBS2 polypeptide (residues 1974-2293), His tag removed (mouse, UniProt P26039 1974-2293); test: SEC
[4] = target: T3, His-Avi-tagged β1A-integrin tail, biotinylated (UniProt P05556-1 752-798, biotin (biotinylated tails, held on NeutrAvidin)); test: ELISA
T3 chain (looked up): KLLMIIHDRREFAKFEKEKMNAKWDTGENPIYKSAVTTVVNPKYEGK

[5] = system: β3-integrin tail; test: ELISA-type binding of talin polypeptides to immobilized β3-integrin tails
[6] = target: T2, talin IBS2 polypeptide (residues …); test: NMR titration

binding result [2]: binds
B2: talin IBS2-A (residues 1974-2140), His tag removed (domain or fragment, mouse, UniProt P26039 1974-2140, looked up)
chain: GTQACITAASAVSGIIADLDTTIMFATAGTLNREGAETFADHREGILKTAKVLVEDTKVLVQNAAGSQEKLAQAAQSSVATITRLADVVKLGAASLGAEDPETQVVLINAVKDVAKALGDLISATKAAAGKVGDDPAVWQLKNSAKVMVTNVTSLLKTVKAVEDEAT

affinity for β-integrin tails, fold weaker than binding by the talin FERM domain [5]: ~2 fold
B6: IBS2: recombinant murine talin residues 1974-2293, two five-helix bundles, integrin-binding site 2 (protein)
chain: GTQACITAASAVSGIIADLDTTIMFATAGTLNREGAETFADHREGILKTAKVLVEDTKVLVQNAAGSQEKLAQAAQSSVATITRLADVVKLGAASLGAEDPETQVVLINAVKDVAKALGDLISATKAAAGKVGDDPAVWQLKNSAKVMVTNVTSLLKTVKAVEDEATKGTRALEATTEHIRQELAVFCSPEPPAKTSTPEDFIRMTKGITMATAKAVAAGNSCRQEDVIATANLSRRAIADMLRACKEAAFHPEVAPDVRLRALHYGRECANGYLELLDHVLLTLQKPNPDLKQQLTGHSKRVAGSVTELIQAAEAMKGT
modifications: left off: His tag, N-terminal, kept | V5 epitope, N-terminal, kept

EC50 [1]: > 2500 nM
B8: talin rod polypeptide 1974-2541 (domain or fragment, UniProt P26039 1974-2541, looked up)
chain: GTQACITAASAVSGIIADLDTTIMFATAGTLNREGAETFADHREGILKTAKVLVEDTKVLVQNAAGSQEKLAQAAQSSVATITRLADVVKLGAASLGAEDPETQVVLINAVKDVAKALGDLISATKAAAGKVGDDPAVWQLKNSAKVMVTNVTSLLKTVKAVEDEATKGTRALEATTEHIRQELAVFCSPEPPAKTSTPEDFIRMTKGITMATAKAVAAGNSCRQEDVIATANLSRRAIADMLRACKEAAFHPEVAPDVRLRALHYGRECANGYLELLDHVLLTLQKPNPDLKQQLTGHSKRVAGSVTELIQAAEAMKGTEWVDPEDPTVIAENELLGAAAAIEAAAKKLEQLKPRAKPKEADESLNFEEQILEAAKSIAAATSALVKAASAAQRELVAQGKVGAIPANALDDGQWSQGLISAARMVAAATNNLCEAANAAVQGHASQEKLISSAKQVAASTAQLLVACKVKADQDSEAMKRLQAAGNAVKRASDNLVKAAQKAAAFEDQENETVVVKEKMVGGIAQIIAAQEEMLRKERELEEARKKLAQIRQQQYKFLPSELRDEH

Second part, the molecule before the results:

B1: talin IBS2-A (residues 1974-2140), His/V5-tagged (domain or fragment, mouse, UniProt P26039 1974-2140, looked up)
chain: GTQACITAASAVSGIIADLDTTIMFATAGTLNREGAETFADHREGILKTAKVLVEDTKVLVQNAAGSQEKLAQAAQSSVATITRLADVVKLGAASLGAEDPETQVVLINAVKDVAKALGDLISATKAAAGKVGDDPAVWQLKNSAKVMVTNVTSLLKTVKAVEDEAT
EC50 [1]: > 2500 nM

Molecule: B3
binding result [3]: binds

B4: talin IBS2-B (residues 2137-2293), His/V5-tagged (domain or fragment, mouse, UniProt P26039 2137-2293, looked up)
chain: DEATKGTRALEATTEHIRQELAVFCSPEPPAKTSTPEDFIRMTKGITMATAKAVAAGNSCRQEDVIATANLSRRAIADMLRACKEAAFHPEVAPDVRLRALHYGRECANGYLELLDHVLLTLQKPNPDLKQQLTGHSKRVAGSVTELIQAAEAMKGT
EC50 [1]: > 2500 nM

B5: talin IBS2 polypeptide (residues 1974-2293), His/V5-tagged (domain or fragment, mouse, UniProt P26039 1974-2293, looked up)
chain: GTQACITAASAVSGIIADLDTTIMFATAGTLNREGAETFADHREGILKTAKVLVEDTKVLVQNAAGSQEKLAQAAQSSVATITRLADVVKLGAASLGAEDPETQVVLINAVKDVAKALGDLISATKAAAGKVGDDPAVWQLKNSAKVMVTNVTSLLKTVKAVEDEATKGTRALEATTEHIRQELAVFCSPEPPAKTSTPEDFIRMTKGITMATAKAVAAGNSCRQEDVIATANLSRRAIADMLRACKEAAFHPEVAPDVRLRALHYGRECANGYLELLDHVLLTLQKPNPDLKQQLTGHSKRVAGSVTELIQAAEAMKGT
EC50 [4]: 900 ± 100 nM
EC50 [1]: 900 ± 200 nM

B7: full-length β3-integrin tail peptide (residues 716-762) (peptide, UniProt P05106 742-788, looked up)
peptide: KLLITIHDRKEFAKFEEERARAKWDTANNPLYKEATSTFTNITYRGT
binding result [6]: binds
